Substitutions are numbered along the chain they refer to. Blank lines part the entries; values can stand above or below the binder they belong to.
How the values were obtained:
[1] = molecular target: DLL3 endogenously expressed on NCI-H82 cells (UniProt Q9NYJ7); experiment: FACS on NCI-H82 cells; antibody 4 nM
[2] = molecular target: DLL3 endogenously expressed on NCI-H82 cells (UniProt Q9NYJ7); experiment: FACS on NCI-H82 cells; antibody 20 nM
[3] = molecular target: mouse DLL3 on CHO-K1-mDLL3 cells (mouse) (UniProt O88516); experiment: FACS, CHO-K1-mDLL3 cells, 20 nM antibody
[4] = molecular target: mouse DLL3 on CHO-K1-mDLL3 cells (mouse) (UniProt O88516); experiment: FACS, CHO-K1-mDLL3 cells, 0.032 nM antibody
[5] = molecular target: monkey DLL3 on CHO-K1-cyno DLL3 cells (cynomolgus monkey); experiment: FACS, CHO-K1-cyno DLL3 cells, 0.0064 nM antibody
[6] = molecular target: monkey DLL3 on CHO-K1-cyno DLL3 cells (cynomolgus monkey); experiment: FACS, CHO-K1-cyno DLL3 cells, 0.8 nM antibody
[7] = molecular target: human DLL4 protein (Acro, Cat. No. DL4-H5227) (human) (UniProt Q9NR61); experiment: ELISA, coated hDLL4; maximum over 0.1, 1, 10, 100 nM antibody
[8] = molecular target: human DLL3 protein expressed on CHO-K1 recombinant cells (human DLL3 extracellular segment fused to EpCAM transmembrane and intracellular regions) (human) (UniProt Q9NYJ7); experiment: FACS, CHO-K1 hDLL3 cells, 0.0064 nM antibody
[9] = molecular target: mouse DLL3 on CHO-K1-mDLL3 cells (mouse) (UniProt O88516); experiment: FACS, CHO-K1-mDLL3 cells, 0.16 nM antibody
[10] = molecular target: monkey DLL3 on CHO-K1-cyno DLL3 cells (cynomolgus monkey); experiment: FACS, CHO-K1-cyno DLL3 cells, 20 nM antibody
[11] = molecular target: human DLL3 protein expressed on CHO-K1 recombinant cells (human DLL3 extracellular segment fused to EpCAM transmembrane and intracellular regions) (human) (UniProt Q9NYJ7); experiment: FACS, CHO-K1 hDLL3 cells, 0.032 nM antibody
[12] = molecular target: DLL3 endogenously expressed on NCI-H82 cells (UniProt Q9NYJ7); experiment: FACS on NCI-H82 cells; antibody 0.8 nM
[13] = molecular target: mouse DLL3 on CHO-K1-mDLL3 cells (mouse) (UniProt O88516); experiment: FACS, CHO-K1-mDLL3 cells, 100 nM antibody
[14] = molecular target: human DLL3 protein expressed on CHO-K1 recombinant cells (human DLL3 extracellular segment fused to EpCAM transmembrane and intracellular regions) (human) (UniProt Q9NYJ7); experiment: FACS, CHO-K1 hDLL3 cells, 4 nM antibody
[15] = molecular target: DLL3 endogenously expressed on NCI-H82 cells (UniProt Q9NYJ7); experiment: FACS on NCI-H82 cells; antibody 0.0064 nM
[16] = molecular target: human delta-like ligand 3 (DLL3) on SHP77 cells (human) (UniProt Q9NYJ7); experiment: FACS on SHP77 cells
[17] = molecular target: DLL3 endogenously expressed on NCI-H82 cells (UniProt Q9NYJ7); experiment: FACS on NCI-H82 cells; antibody 100 nM
[18] = molecular target: monkey DLL3 on CHO-K1-cyno DLL3 cells (cynomolgus monkey); experiment: FACS, CHO-K1-cyno DLL3 cells, 100 nM antibody
[19] = molecular target: monkey DLL3 on CHO-K1-cyno DLL3 cells (cynomolgus monkey); experiment: FACS, CHO-K1-cyno DLL3 cells, 0.16 nM antibody
[20] = molecular target: human DLL1 protein (Acro, Cat. No. DL1-H52H8) (human) (UniProt O00548); experiment: ELISA, coated hDLL1; maximum over 0.1, 1, 10, 100 nM antibody
[21] = molecular target: mouse DLL3 on CHO-K1-mDLL3 cells (mouse) (UniProt O88516); experiment: FACS, CHO-K1-mDLL3 cells, 0.00128 nM antibody
[22] = molecular target: human DLL3 protein expressed on CHO-K1 recombinant cells (human DLL3 extracellular segment fused to EpCAM transmembrane and intracellular regions) (human) (UniProt Q9NYJ7); experiment: FACS, CHO-K1 hDLL3 cells, 20 nM antibody
[23] = molecular target: mouse DLL3 on CHO-K1-mDLL3 cells (mouse) (UniProt O88516); experiment: FACS, CHO-K1-mDLL3 cells, 0.8 nM antibody
[24] = molecular target: monkey DLL3 on CHO-K1-cyno DLL3 cells (cynomolgus monkey); experiment: FACS, CHO-K1-cyno DLL3 cells, 0.00128 nM antibody
[25] = molecular target: human DLL3 protein expressed on CHO-K1 recombinant cells (human DLL3 extracellular segment fused to EpCAM transmembrane and intracellular regions) (human) (UniProt Q9NYJ7); experiment: FACS, CHO-K1 hDLL3 cells, 100 nM antibody
[26] = molecular target: mouse DLL3 on CHO-K1-mDLL3 cells (mouse) (UniProt O88516); experiment: FACS, CHO-K1-mDLL3 cells, 0.0064 nM antibody
[27] = molecular target: DLL3 endogenously expressed on NCI-H82 cells (UniProt Q9NYJ7); experiment: FACS on NCI-H82 cells; antibody 0.16 nM
[28] = molecular target: human DLL3 protein expressed on CHO-K1 recombinant cells (human DLL3 extracellular segment fused to EpCAM transmembrane and intracellular regions) (human) (UniProt Q9NYJ7); experiment: FACS, CHO-K1 hDLL3 cells, 0.00128 nM antibody
[29] = molecular target: human DLL3 protein expressed on CHO-K1 recombinant cells (human DLL3 extracellular segment fused to EpCAM transmembrane and intracellular regions) (human) (UniProt Q9NYJ7); experiment: FACS, CHO-K1 hDLL3 cells, 0.16 nM antibody
[30] = molecular target: human DLL3 protein expressed on CHO-K1 recombinant cells (human DLL3 extracellular segment fused to EpCAM transmembrane and intracellular regions) (human) (UniProt Q9NYJ7); experiment: FACS, CHO-K1 hDLL3 cells, 0.8 nM antibody
[31] = molecular target: DLL3 endogenously expressed on NCI-H82 cells (UniProt Q9NYJ7); experiment: FACS on NCI-H82 cells; antibody 0.00128 nM
[32] = molecular target: monkey DLL3 on CHO-K1-cyno DLL3 cells (cynomolgus monkey); experiment: FACS, CHO-K1-cyno DLL3 cells, 0.032 nM antibody
[33] = molecular target: DLL3 endogenously expressed on NCI-H82 cells (UniProt Q9NYJ7); experiment: FACS on NCI-H82 cells; antibody 0.032 nM
[34] = molecular target: monkey DLL3 on CHO-K1-cyno DLL3 cells (cynomolgus monkey); experiment: FACS, CHO-K1-cyno DLL3 cells, 4 nM antibody
[35] = molecular target: mouse DLL3 on CHO-K1-mDLL3 cells (mouse) (UniProt O88516); experiment: FACS, CHO-K1-mDLL3 cells, 4 nM antibody

Sequence of DLL3 endogenously expressed on NCI-H82 cells (Q9NYJ7 27-618): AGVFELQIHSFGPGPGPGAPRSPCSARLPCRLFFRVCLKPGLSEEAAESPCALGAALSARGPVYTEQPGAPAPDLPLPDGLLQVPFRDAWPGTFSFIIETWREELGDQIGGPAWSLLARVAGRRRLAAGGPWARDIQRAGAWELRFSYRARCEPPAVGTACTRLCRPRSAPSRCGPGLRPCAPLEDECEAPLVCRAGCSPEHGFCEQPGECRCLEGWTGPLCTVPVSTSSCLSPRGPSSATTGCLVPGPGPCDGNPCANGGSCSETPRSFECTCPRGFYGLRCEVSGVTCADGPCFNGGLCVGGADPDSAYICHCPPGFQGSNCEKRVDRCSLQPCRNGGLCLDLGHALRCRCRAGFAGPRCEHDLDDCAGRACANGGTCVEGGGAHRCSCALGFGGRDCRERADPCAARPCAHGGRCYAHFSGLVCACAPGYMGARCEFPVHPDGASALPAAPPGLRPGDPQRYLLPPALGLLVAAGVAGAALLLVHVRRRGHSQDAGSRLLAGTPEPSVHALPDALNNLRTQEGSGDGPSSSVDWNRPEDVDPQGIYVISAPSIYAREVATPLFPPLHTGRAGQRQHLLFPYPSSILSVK
Sequence of human delta-like ligand 3 (DLL3) on SHP77 cells (human) (Q9NYJ7 27-618, stated change not applied): as the sequence (Q9NYJ7 27-618) above
Sequence of human DLL3 protein expressed on CHO-K1 recombinant cells (human DLL3 extracellular segment fused to EpCAM transmembrane and intracellular regions) (human) (Q9NYJ7 other isoform, or with tags, fused parts or gaps limits assumed): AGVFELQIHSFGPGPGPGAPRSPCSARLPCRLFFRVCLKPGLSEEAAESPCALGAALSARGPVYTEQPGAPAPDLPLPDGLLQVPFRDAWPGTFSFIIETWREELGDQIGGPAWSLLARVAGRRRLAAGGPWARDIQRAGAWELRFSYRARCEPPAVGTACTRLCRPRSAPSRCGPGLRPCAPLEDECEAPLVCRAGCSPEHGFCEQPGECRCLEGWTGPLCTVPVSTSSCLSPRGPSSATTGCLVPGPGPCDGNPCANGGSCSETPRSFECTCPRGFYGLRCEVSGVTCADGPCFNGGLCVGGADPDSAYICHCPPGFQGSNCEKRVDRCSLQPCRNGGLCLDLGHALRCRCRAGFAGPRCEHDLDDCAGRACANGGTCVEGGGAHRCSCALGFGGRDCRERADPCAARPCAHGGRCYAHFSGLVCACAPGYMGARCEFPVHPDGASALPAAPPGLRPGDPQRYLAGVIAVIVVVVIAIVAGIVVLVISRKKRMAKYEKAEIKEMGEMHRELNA
Sequence of monkey DLL3 on CHO-K1-cyno DLL3 cells (cynomolgus monkey) (chain, as listed by the source limits assumed): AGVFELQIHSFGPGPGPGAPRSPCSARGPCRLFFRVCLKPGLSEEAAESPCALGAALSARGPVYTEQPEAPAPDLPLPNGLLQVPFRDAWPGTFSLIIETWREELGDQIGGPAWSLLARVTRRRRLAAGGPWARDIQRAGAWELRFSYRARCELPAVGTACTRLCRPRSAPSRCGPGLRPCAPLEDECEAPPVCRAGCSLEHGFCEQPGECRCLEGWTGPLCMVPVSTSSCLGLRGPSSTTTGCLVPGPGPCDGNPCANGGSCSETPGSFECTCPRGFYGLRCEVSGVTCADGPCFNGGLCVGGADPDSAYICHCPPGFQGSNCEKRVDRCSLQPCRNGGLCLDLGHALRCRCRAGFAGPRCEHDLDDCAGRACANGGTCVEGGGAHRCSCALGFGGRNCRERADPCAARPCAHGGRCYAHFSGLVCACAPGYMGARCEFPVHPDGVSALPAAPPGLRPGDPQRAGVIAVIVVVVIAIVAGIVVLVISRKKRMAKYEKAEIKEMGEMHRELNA
Sequence of mouse DLL3 on CHO-K1-mDLL3 cells (mouse) (O88516 other isoform, or with tags, fused parts or gaps limits assumed): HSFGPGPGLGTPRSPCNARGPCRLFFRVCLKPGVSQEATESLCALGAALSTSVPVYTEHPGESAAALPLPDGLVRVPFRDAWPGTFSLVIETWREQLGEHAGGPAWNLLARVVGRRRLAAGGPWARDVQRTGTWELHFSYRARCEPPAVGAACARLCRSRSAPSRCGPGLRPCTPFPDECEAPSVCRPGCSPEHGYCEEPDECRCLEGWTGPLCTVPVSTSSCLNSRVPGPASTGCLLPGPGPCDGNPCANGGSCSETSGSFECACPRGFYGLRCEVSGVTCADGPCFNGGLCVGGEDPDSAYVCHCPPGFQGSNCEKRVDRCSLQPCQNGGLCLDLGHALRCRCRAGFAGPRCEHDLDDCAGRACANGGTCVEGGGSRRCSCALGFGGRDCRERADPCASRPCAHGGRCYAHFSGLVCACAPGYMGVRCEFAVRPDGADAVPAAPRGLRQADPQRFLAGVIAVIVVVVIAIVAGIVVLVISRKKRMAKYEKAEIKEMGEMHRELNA
Sequence of human DLL4 protein (Acro, Cat. No. DL4-H5227) (human) (Q9NR61 27-524 limits assumed): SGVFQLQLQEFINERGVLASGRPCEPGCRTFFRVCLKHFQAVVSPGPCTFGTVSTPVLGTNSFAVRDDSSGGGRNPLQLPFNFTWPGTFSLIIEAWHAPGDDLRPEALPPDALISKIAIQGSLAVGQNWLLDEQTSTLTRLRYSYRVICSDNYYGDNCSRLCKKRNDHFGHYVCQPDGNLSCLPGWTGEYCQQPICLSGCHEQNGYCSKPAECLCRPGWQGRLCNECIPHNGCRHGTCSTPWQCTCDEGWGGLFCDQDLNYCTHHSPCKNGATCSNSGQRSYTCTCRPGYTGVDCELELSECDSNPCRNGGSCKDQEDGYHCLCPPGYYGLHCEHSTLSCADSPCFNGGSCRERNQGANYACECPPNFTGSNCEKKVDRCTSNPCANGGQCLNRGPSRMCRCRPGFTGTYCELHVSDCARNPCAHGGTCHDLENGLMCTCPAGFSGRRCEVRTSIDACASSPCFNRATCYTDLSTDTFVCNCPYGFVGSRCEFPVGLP
Sequence of human DLL1 protein (Acro, Cat. No. DL1-H52H8) (human) (O00548 18-540 limits assumed): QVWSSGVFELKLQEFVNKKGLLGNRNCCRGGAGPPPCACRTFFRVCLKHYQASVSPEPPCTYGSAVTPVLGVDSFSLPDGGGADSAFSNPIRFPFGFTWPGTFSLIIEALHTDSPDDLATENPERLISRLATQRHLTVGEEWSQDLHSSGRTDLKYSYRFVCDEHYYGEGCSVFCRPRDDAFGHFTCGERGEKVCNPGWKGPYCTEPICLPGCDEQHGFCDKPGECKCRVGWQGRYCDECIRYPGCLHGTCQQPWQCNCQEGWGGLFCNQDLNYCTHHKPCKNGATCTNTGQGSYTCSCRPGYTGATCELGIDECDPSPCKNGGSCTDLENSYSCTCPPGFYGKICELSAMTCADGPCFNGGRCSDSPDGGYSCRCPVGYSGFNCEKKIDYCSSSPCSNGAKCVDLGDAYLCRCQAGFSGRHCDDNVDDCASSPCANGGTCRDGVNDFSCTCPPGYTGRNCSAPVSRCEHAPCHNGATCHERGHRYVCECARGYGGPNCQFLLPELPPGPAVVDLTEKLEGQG

MFI [1]: 1030
MFI [2]: 1190
MFI [3]: 1420 MFI
MFI [4]: 170 MFI
MFI [5]: 164 MFI
MFI [6]: 4480 MFI
Emax of OD450 nm binding value [7]: 0.71 OD450 nm
MFI [8]: 150 MFI
MFI [9]: 350 MFI
MFI [10]: 7180 MFI
MFI [11]: 283 MFI
MFI [12]: 942
MFI [13]: 1530 MFI
MFI [14]: 10900 MFI
MFI [15]: 135
MFI at 0.00128 nM [16]: 100 MFI
MFI at 0.0064 nM [16]: 117 MFI
MFI at 0.032 nM [16]: 179 MFI
MFI at 0.16 nM [16]: 368 MFI
MFI at 0.8 nM [16]: 709 MFI
MFI at 4 nM [16]: 812 MFI
MFI at 20 nM [16]: 997 MFI
MFI at 100 nM [16]: 1250 MFI
MFI [17]: 1510
MFI [18]: 7610 MFI
MFI [19]: 1180 MFI
Emax of OD450 nm binding value [20]: 0.42 OD450 nm
MFI [21]: 117 MFI
MFI [22]: 12000 MFI
MFI [23]: 875 MFI
MFI [24]: 122 MFI
MFI [25]: 12400 MFI
MFI [26]: 126 MFI
MFI [27]: 476
MFI [28]: 122 MFI
MFI [29]: 870 MFI
MFI [30]: 4390 MFI
MFI [31]: 118
MFI [32]: 377 MFI
MFI [33]: 212
MFI [34]: 6520 MFI
MFI [35]: 1210 MFI
B1: Hab015VL4VH5a-hFc (scFv, part only; not given: VL-VH linker and human IgG1 Fc, V domains shown, not shown: another chain or arm of the molecule; a dimerising Fc or GST; small tags and cut ends)
VL: NIVLTQSPATLSLSPGERATLSCKASENVGTYVSWFQQKPGQSPRLLIYGASNRYTGIPARFSGSGSGTDFTLTISSLEPEDFAVYYCGQFYSFPSTFGGGTKVEIK
VH: EVQLVESGGGLVKPGGSLRLSCVASGITFSNFWMNWVRQAPGKGLEWVGQIRLKSDDYATHYAESVKGRFTISREDSKNTVYLQMNSLKTEDTAVYYCTTGYYFDYWGQGTTVTVSS

MFI [1]: 867
MFI [2]: 1100
MFI [3]: 1290 MFI
MFI [4]: 195 MFI
MFI [5]: 178 MFI
MFI [6]: 4340 MFI
Emax of OD450 nm binding value [7]: 0.71 OD450 nm
MFI [8]: 160 MFI
MFI [9]: 393 MFI
MFI [10]: 7040 MFI
MFI [11]: 330 MFI
MFI [12]: 811
MFI [13]: 1550 MFI
MFI [14]: 10600 MFI
MFI [15]: 137
MFI at 0.00128 nM [16]: 102 MFI
MFI at 0.0064 nM [16]: 122 MFI
MFI at 0.032 nM [16]: 185 MFI
MFI at 0.16 nM [16]: 343 MFI
MFI at 0.8 nM [16]: 612 MFI
MFI at 4 nM [16]: 768 MFI
MFI at 20 nM [16]: 907 MFI
MFI at 100 nM [16]: 1140 MFI
MFI [17]: 1220
MFI [18]: 7380 MFI
MFI [19]: 1190 MFI
Emax of OD450 nm binding value [20]: 0.47 OD450 nm
MFI [21]: 121 MFI
MFI [22]: 11800 MFI
MFI [23]: 922 MFI
MFI [24]: 131 MFI
MFI [25]: 12000 MFI
MFI [26]: 131 MFI
MFI [27]: 478
MFI [28]: 129 MFI
MFI [29]: 936 MFI
MFI [30]: 4310 MFI
MFI [31]: 118
MFI [32]: 415 MFI
MFI [33]: 219
MFI [34]: 6660 MFI
MFI [35]: 1200 MFI
B2: Hab015VL5VH1a-hFc (scFv, part only; not given: scFv linker and human IgG1 Fc, V domains shown, not shown: another chain or arm of the molecule; a dimerising Fc or GST; small tags and cut ends)
VL: NIQMTQSPSSLSASVGDRVTITCKASENVGTYVSWYQQKPGKSPKLLIYGASNRYTGVPSRFSGSGSGTDFTLTISSLQPEDFATYYCGQFYSFPSTFGGGTKVEIK
VH: B1 VH with V23A

Source: patent EP4786492A1
